Target: C3 degradation products deposited on the bacterial surface (human) (UniProt P01024)
Assay: flow cytometry on cells; S. aureus JE2Δsbi spa::Tn opsonised in 10% NHS, incubated with polyclonal anti-human C3d antibody or not, washed, then probed with biotin-labelled Sbi-IV and streptavidin-AF488; gMFI

Sequence of UniProt P01024 (P01024 23-1663): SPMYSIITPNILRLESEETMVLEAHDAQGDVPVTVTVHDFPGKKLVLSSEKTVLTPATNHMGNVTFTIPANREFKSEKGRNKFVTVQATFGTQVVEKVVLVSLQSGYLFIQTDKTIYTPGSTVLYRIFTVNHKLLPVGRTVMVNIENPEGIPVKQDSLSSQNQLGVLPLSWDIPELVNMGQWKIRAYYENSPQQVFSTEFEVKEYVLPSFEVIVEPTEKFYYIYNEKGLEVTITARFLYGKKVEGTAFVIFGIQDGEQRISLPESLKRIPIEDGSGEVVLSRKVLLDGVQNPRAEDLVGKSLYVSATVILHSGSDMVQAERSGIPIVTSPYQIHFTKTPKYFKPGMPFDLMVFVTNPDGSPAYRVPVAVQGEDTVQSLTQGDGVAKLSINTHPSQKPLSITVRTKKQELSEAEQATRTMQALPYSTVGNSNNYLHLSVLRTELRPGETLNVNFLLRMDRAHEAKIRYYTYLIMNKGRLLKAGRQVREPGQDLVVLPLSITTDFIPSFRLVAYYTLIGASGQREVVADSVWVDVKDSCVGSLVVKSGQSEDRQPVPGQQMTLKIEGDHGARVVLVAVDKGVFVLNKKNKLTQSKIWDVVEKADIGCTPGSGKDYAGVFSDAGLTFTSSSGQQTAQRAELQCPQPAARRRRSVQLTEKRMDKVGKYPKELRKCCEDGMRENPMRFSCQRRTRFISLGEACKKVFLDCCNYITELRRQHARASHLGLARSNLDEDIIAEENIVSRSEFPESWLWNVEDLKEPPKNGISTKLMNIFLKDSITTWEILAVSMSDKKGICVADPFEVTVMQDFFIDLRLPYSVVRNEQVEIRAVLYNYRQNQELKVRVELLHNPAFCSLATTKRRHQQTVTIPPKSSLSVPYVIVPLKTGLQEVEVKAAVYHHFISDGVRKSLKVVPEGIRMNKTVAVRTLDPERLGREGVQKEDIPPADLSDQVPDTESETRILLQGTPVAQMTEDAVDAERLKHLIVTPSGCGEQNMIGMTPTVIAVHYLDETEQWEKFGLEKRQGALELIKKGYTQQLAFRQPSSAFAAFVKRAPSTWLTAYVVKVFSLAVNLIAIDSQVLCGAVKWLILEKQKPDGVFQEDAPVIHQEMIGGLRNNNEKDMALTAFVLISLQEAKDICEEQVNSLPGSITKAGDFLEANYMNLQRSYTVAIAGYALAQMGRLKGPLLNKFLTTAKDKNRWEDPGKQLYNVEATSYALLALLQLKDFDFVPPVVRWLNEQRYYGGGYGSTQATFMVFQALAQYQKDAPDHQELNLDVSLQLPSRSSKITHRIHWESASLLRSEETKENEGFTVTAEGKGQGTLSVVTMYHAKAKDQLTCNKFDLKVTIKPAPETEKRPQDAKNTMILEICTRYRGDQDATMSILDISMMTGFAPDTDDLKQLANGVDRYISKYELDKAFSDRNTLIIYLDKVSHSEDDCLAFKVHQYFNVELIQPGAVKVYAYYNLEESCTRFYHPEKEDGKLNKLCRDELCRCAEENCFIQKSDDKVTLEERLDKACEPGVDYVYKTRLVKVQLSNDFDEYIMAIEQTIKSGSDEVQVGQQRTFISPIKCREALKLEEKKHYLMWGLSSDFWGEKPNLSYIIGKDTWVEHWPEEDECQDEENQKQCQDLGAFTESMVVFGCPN

Q: “biotin-labelled Sbi-IV (complement C3 binding domain IV of the staphylococcal Sbi protein) (from UniProt Q931F4 198-266) (domain or fragment)” was tested. Which percent reduction of binding after polyclonal anti-C3d antibodies did it give?
A: 50%
